Literature values as cited in article PMC2994893.

Biological target: Lck phospho-Tyr505 motif pTyr505 motif (Homo sapiens) (UniProt P06239)

- Kd: 300 nM
Substance: Lck SH2 (from UniProt P06239)
